Data: IntAct's records for PubMed 25394380

Target: aph1a_human APH1A (UniProt Q96BI3)
Sequence (Q96BI3 whole entry): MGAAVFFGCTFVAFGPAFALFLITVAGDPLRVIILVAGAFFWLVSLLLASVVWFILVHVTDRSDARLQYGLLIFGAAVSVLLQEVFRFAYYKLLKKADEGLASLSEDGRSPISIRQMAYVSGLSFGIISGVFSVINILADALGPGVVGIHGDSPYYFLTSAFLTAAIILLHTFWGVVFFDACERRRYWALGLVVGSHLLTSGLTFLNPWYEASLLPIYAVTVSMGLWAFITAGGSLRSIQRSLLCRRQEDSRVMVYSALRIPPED

effect of a mutation on the interaction: with no effect
Substance: Presenilin-1 (Homo sapiens) (from UniProt P49768) G206D
